{"source": "paper PMC9823007", "target": "NyxB (His tag cleaved, for crystallisation, SEC-MALS and SAXS) (Brucella abortus 2308) (UniProt Q2YPZ9)", "test": "SEC-MALS"}
{"substance": "NyxB (His tag cleaved, for crystallisation, SEC-MALS and SAXS) (from UniProt Q2YPZ9 1-134) (natural protein)", "values": [{"measurement": "stoichiometry N", "value": 2}]}
